In article PMC11178655, “Dosimetry and pharmacokinetics of [^177Lu]Lu-satoreotide tetraxetan in patients with progressive neuroendocrine tumours” (European Journal of Nuclear Medicine and Molecular Imaging, 2024):
Several values for one entry are separate records, joined by “and”; a condition that tells them apart may be missing. Equal values may be shown once. Where a SMILES comes first, the peptide text is derived from it. Bridges are numbered along the chain shown (N, C = ends). [ ]: non-standard residue; d: D form. The star is where a group is joined. DOTA = O=C(O)CN1CCN(CC(=O)O)CCN(CC(=O)*)CCN(CC(=O)O)CC1; dPhe(4-NHCONH2) = NC(=O)Nc1ccc(C[C@@H](N)C(=O)O)cc1; Dihydroorotyl(S) = O=C1C[C@@H](C(=O)*)NC(=O)N1; Phe(4-Cl) = N[C@@H](Cc1ccc(Cl)cc1)C(=O)O; Phe(4-NH2) = Nc1ccc(C[C@H](N)C(=O)O)cc1

Test system: patients with progressive, SSTR-positive NETs
Experiment: Patient-specific image-based dosimetry (NUKDOS) of tumours and organs, phase I/II trial
Format: in vivo, human
Description: In both parts A and B of the study, patients underwent planar whole-body imaging at 4 h and 1, 2, 3, and 6 days after each [^177Lu]Lu-satoreotide tetraxetan treatment cycle. Patients in part A also underwent single-photon emission computed tomography/computed tomography (SPECT/CT) at 24 h after each [^177Lu]Lu-satoreotide tetraxetan cycle. Those in part B underwent SPECT/CT, immediately before or after planar scintigraphy, at 4 h, and 1, 2, 3, and 6 days after each [^177Lu]Lu-satoreotide tetraxetan administration. Full details of the image acquisition methodology are provided in the Supplementary Information.
Delineation of tumour volumes was performed on anatomical SPECT/CT images after each [^177Lu]Lu-satoreotide tetraxetan administration. Tumours with a longest diameter < 2 cm were not analysed due to the difficulty in correcting for partial volume effects caused by the limited spatial resolution of the SPECT/CT systems. For study inclusion in part A, one tumour lesion ≥ 2 cm must have been present for eligibility; in part B, two or more tumour lesions ≥ 2 cm must have been present, each with an uptake on SSTR imaging higher than that of normal liver parenchyma (target lesion on [^68Ga]Ga-DOTA-TATE or -DOTA-TOC positron emission tomography: maximum standardised uptake value [SUVmax] ≥ 2x the mean SUV [SUVmean] of liver background; or ^111In-scintigraphy/SPECT: Krenning score 3 or 4 [uptake > normal liver, or uptake > spleen or kidneys, respectively [26]]).
Reconstruction parameters were set up to produce isotropic voxels of < 5 mm; voxels were continuous throughout the field of view. Anatomic coverage of the acquisition was determined according to the patients’ tumour locations on the planar whole-body scan acquisition with liver, both kidneys and spleen in the same bed position. For organs showing [^177Lu]Lu-satoreotide tetraxetan uptake, regions of interest (ROIs)/volumes of interest (VOIs) were drawn manually over the whole organs of interest (whole body, left and right kidneys, liver, spleen, and bone marrow), using the NUKDOS software for planar whole-body scans and the SPECT/CT acquired in part A [27]. VOIs for the same organs were drawn for all SPECT/CT images acquired in part B. All ROIs/VOIs were then used for activity quantification. Time-integrated activity coefficients (TIACs) for a given source volume were computed by integrating the time-activity curves. Full details of the tumour delineation and activity quantification methodology are provided in the Supplementary Information.
Patient-specific dosimetry calculations were performed after each treatment cycle in both parts A and B, using the absorbed dose calculation features of the NUKDOS software for image-based dosimetry calculations. The NUKDOS software was chosen as it allowed for an integral approach to organ dosimetry (including image quantification, time-activity curve-fitting and dosimetry calculation). For the bone marrow, both image-based and blood-based calculations were performed in part A [28, 29]. In part B, only image-based bone marrow dosimetry was performed. Organ Level INternal Dose Assessment/EXponential Modelling (OLINDA/EXM) version 1.0 software, the most widely used version at the time of the study, was used to perform model-based dosimetry calculations, which were only performed after the first [^177Lu]Lu-satoreotide tetraxetan cycle for patients in part B. To generate organ-specific absorbed doses, TIACs were used as input data. Full details on OLINDA/EXM software settings and organ-specific TIAC calculation methods are provided in the Supplementary Information.
All images were acquired with a 20% energy window around the main photopeak of ^177Lu (208 keV). For scatter correction, the triple-energy window method was applied based on the recommendation of the Committee on Medical Internal Radiation Dose. Whole-body images were acquired with a scanning time of 20 cm/min in a 256 × 1,024 matrix. […]

[1] = Part B Cohort 3 (4.5 GBq, 300 µg; 700 µg at cycle 2), median (range), n = 8
[2] = Part B Cohort 3 (4.5 GBq/cycle), image-based dosimetry, median (range), n = 6
[3] = Part B Cohort 3 (4.5 GBq/cycle), median (range), n = 8
[4] = Part B Cohort 3 (4.5 GBq/cycle), median (range), n = 9
[5] = Part B Cohort 3, median (range), n = 8
[6] = Part B Cohort 6 (4.5 GBq/cycle), median (range), n = 6
[7] = Part B Cohort 6 (4.5 GBq/cycle), median (range), n = 7
[8] = Part B Cohort 6 (4.5 GBq/cycle), median (range), n/n-les 4/9

C[C@@H](O)[C@@H]1NC(=O)[C@H](CCCCN)NC(=O)[C@@H](Cc2ccc(NC(N)=O)cc2)NC(=O)[C@H](Cc2ccc(NC(=O)[C@@H]3CC(=O)NC(=O)N3)cc2)NC(=O)[C@H](NC(=O)[C@H](Cc2ccc(Cl)cc2)NC(=O)CN2CCN(CC(=O)O)CCN(CC(=O)O)CCN(CC(=O)O)CC2)CSSC[C@@H](C(=O)N[C@H](Cc2ccc(O)cc2)C(N)=O)NC1=O [[^177Lu]Lu-satoreotide tetraxetan, metal not drawn] ({DOTA}-[Phe(4-Cl)][dC][Phe(4-NH2)](Dihydroorotyl(S))[dPhe(4-NHCONH2)]KTC[dY]-NH2; disulfide 2-7 (inferred); C-terminus assumed)
Cycle 3 ADC, Kidneys [1]: 0.8 (0.4–1.2) Gy/GBq
Cycle 3 ADC, Tumours [1]: 5.5 (2.6–16.8) Gy/GBq
Ratio of ADCs Cycle 2/Cycle 1 (700 vs. 300 µg), Bone marrow [2]: 95.0 (36.4–143) %
Ratio of ADCs Cycle 2/Cycle 3 (700 vs. 300 µg), Bone marrow [2]: 95.0 (60.0–125) %
Ratio of ADCs Cycle 2/Cycle 3 (700 vs. 300 µg), Spleen (Part B Cohort 3 (4.5 GBq/cycle), median (range), n = 5): 79.3 (61.2–90.8) %
Ratio of ADCs Cycle 2/Cycle 1 (700 vs. 300 µg), Spleen (Part B Cohort 3 (4.5 GBq/cycle), median (range), n = 6): 61.9 (45.9–108) %
Ratio of ADCs Cycle 2/Cycle 3 (700 vs. 300 µg), Body [3]: 101 (78.7–132) %
Ratio of ADCs Cycle 2/Cycle 3 (700 vs. 300 µg), Kidney [3]: 82.0 (64.8–110) %
Ratio of ADCs Cycle 2/Cycle 1 (700 vs. 300 µg), Body [4]: 83.3 (52.8–100) %
Ratio of ADCs Cycle 2/Cycle 1 (700 vs. 300 µg), Kidney [4]: 80.8 (61.0–113) %
Ratio of ADCs Cycle 2/Cycle 3 (700 vs. 300 µg), Liver lesions (Part B Cohort 3 (4.5 GBq/cycle), median (range), n/n-les 6/9): 68.9 (57.3–121) %
Ratio of ADCs Cycle 2/Cycle 1 (700 vs. 300 µg), Liver lesions (Part B Cohort 3 (4.5 GBq/cycle), median (range), n/n-les 7/10): 70.4 (52.4–95.7) %
Ratio of ADCs Cycle 2/Cycle 3 (700 vs. 300 µg), All lesions (Part B Cohort 3 (4.5 GBq/cycle), median (range), n/n-les 8/15): 77.6 (52.4–121) %
Ratio of ADCs Cycle 2/Cycle 1 (700 vs. 300 µg), All lesions (Part B Cohort 3 (4.5 GBq/cycle), median (range), n/n-les 9/17): 62.5 (27.6–95.7) %
Ratio of Cycle 3/ Cycle 1 ADCs, Bone marrow (Part B Cohort 3, image-based dosimetry, median (range), n = 6): 106 (36.4–138) %
Ratio of Cycle 3/ Cycle 1 ADCs, Spleen (Part B Cohort 3, median (range), n = 5): 87.8 (76.0–152) %
Ratio of Cycle 3/ Cycle 1 ADCs, Kidneys [5]: 94.1 (78.9–146) %
Ratio of Cycle 3/ Cycle 1 ADCs, Tumours [5]: 80.5 (44.1–152) %
Cycle 1 ADC, Bone marrow (Part B Cohort 6 (4.5 GBq, 300 µg), image-based dosimetry, median (range), n = 6): 0.1 (0.0–0.2) Gy/GBq
Cycle 1 ADC, Spleen (Part B Cohort 6 (4.5 GBq, 300 µg), median (range), n = 6): 0.8 (0.4–1.0) Gy/GBq
Cycle 1 ADC, Tumours (Part B Cohort 6 (4.5 GBq, 300 µg), median (range), n = 8): 13.5 (2.2–81.0) Gy/GBq
Cycle 1 ADC, Kidneys (Part B Cohort 6 (4.5 GBq, 300 µg), median (range), n = 9): 0.8 (0.4–1.1) Gy/GBq
Cycle 3 ADC, Bone marrow (Part B Cohort 6 (4.5 GBq, 300 µg; 1,300 µg at cycle 2), image-based dosimetry, median (range), n = 3): 0.1 (0.0–0.1) Gy/GBq
Cycle 3 ADC, Spleen (Part B Cohort 6 (4.5 GBq, 300 µg; 1,300 µg at cycle 2), median (range), n = 4): 0.8 (0.7–1.5) Gy/GBq
Cycle 3 ADC, Tumours (Part B Cohort 6 (4.5 GBq, 300 µg; 1,300 µg at cycle 2), median (range), n = 5): 7.7 (3.2–70.3) Gy/GBq
Cycle 3 ADC, Kidneys (Part B Cohort 6 (4.5 GBq, 300 µg; 1,300 µg at cycle 2), median (range), n = 6): 0.8 (0.7–1.2) Gy/GBq
Ratio of ADCs Cycle 2/Cycle 3 (1300 vs. 300 µg), Bone marrow (Part B Cohort 6 (4.5 GBq/cycle), image-based dosimetry, median (range), n = 3): 114 (50.0–120) %
Ratio of ADCs Cycle 2/Cycle 1 (1300 vs. 300 µg), Bone marrow (Part B Cohort 6 (4.5 GBq/cycle), image-based dosimetry, median (range), n = 4): 200 (80.0–240) %
Ratio of ADCs Cycle 2/Cycle 3 (1300 vs. 300 µg), Spleen (Part B Cohort 6 (4.5 GBq/cycle), median (range), n = 4): 49.7 (49.3–52.6) %
Ratio of ADCs Cycle 2/Cycle 1 (1300 vs. 300 µg), Spleen (Part B Cohort 6 (4.5 GBq/cycle), median (range), n = 5): 48.0 (44.3–94.4) %
Ratio of ADCs Cycle 2/Cycle 3 (1300 vs. 300 µg), Body [6]: 87.6 (72.7–102) %
Ratio of ADCs Cycle 2/Cycle 3 (1300 vs. 300 µg), Kidney [6]: 72.4 (52.8–96.3) %
Ratio of ADCs Cycle 2/Cycle 1 (1300 vs. 300 µg), Body [7]: 82.3 (48.3–97.6) %
Ratio of ADCs Cycle 2/Cycle 1 (1300 vs. 300 µg), Kidney [7]: 92.5 (65.9–121) %
Ratio of ADCs Cycle 2/Cycle 1 (1300 vs. 300 µg), Liver lesions [8]: 48.4 (24.7–76.5) %
Ratio of ADCs Cycle 2/Cycle 3 (1300 vs. 300 µg), Liver lesions [8]: 67.9 (40.6–104) %
Ratio of ADCs Cycle 2/Cycle 3 (1300 vs. 300 µg), All lesions (Part B Cohort 6 (4.5 GBq/cycle), median (range), n/n-les 5/11): 67.9 (40.6–104) %
Ratio of ADCs Cycle 2/Cycle 1 (1300 vs. 300 µg), All lesions (Part B Cohort 6 (4.5 GBq/cycle), median (range), n/n-les 6/13): 44.4 (24.7–76.5) %
Ratio of Cycle 3/ Cycle 1 ADCs, Bone marrow (Part B Cohort 6, image-based dosimetry, median (range), n = 3): 200 (175–400) %
Ratio of Cycle 3/ Cycle 1 ADCs, Spleen (Part B Cohort 6, median (range), n = 3): 185 (84.2–192) %
Ratio of Cycle 3/ Cycle 1 ADCs, Tumours (Part B Cohort 6, median (range), n = 4): 79.0 (28.6–114) %
Ratio of Cycle 3/ Cycle 1 ADCs, Kidneys (Part B Cohort 6, median (range), n = 5): 143 (88.8–198) %
Cumulative bone marrow absorbed dose, single patient (cohort 1 patient, one cycle at 5.9 GBq, developed grade 3 thrombocytopenia): 3.6 Gy
Overall specific absorbed dose coefficient in all lesions, initial diagnosis Pheochromocytoma + paraganglioma (first treatment cycle, median, N = 4): 2.1 Gy/GBq
Overall specific absorbed dose coefficient in all lesions, initial diagnosis Lung NET (first treatment cycle, median, N = 6): 5.1 Gy/GBq
Overall specific absorbed dose coefficient in all lesions, initial diagnosis GEP-NET (first treatment cycle, median, N = 23): 5.8 Gy/GBq
Patients with ADC ratio > 150% between cycle 3 and cycle 1, bone marrow (human, in vivo): 23.8 % of patients
Patients with ADC ratio > 150% between cycle 3 and cycle 1, kidneys (human, in vivo): 8.3 % of patients
Patients with ADC ratio > 150% between cycle 3 and cycle 1, liver (human, in vivo): no patients
Patients with ADC ratio > 150% between cycle 3 and cycle 1, spleen (human, in vivo): 22.2 % of patients
Mean cumulative absorbed dose in the left and right kidneys, single patient (part A patient, three cycles each at 4.5 GBq, eGFR below normal at baseline, no further deterioration of renal function): 24.1 Gy
Cumulative bone marrow absorbed dose, single patient (part A patient, three treatment cycles at 4.5, 4.4 and 4.3 GBq, no acute haematological toxicity): 2.2 Gy
Cumulative absorbed dose, bone marrow, image-based method (part A, cycles 1–3, 11 evaluated patients, median): 1.1 Gy
Cycle 1 ADC, Tumours (part B (all cohorts), median [range]): 7.9 [1.9–83.3] Gy/GBq
Cumulative bone marrow absorbed dose, single patient (part B cohort 1 patient, two treatment cycles at 4.7 GBq, no acute haematological toxicity): 1.9 Gy
Cumulative absorbed dose, kidneys (both left and right) (parts A and B, after cycles 1–3, median, pre-specified limit 23.0 Gy): 10.8 Gy
Cumulative absorbed dose, bone marrow, image-based (parts A and B, patients who completed three cycles (n = 21), median, pre-specified limit 1.5 Gy): 1.1 Gy
Cycle 1 ADC of tumours with ADC ratio cycle 3/cycle 1 > 150% (range): 0.6–4.1 Gy/GBq
Observations of ADC ratio between cycle 3 and cycle 1 in tumours > 150% (share of observations): 6.5%
Cumulative bone marrow absorbed dose, single patients (two additional patients after treatment cycle 4, individual values): 1.5 Gy and 1.8 Gy
